Assay [1] deals with T1, hVar3 (RG3036) (human, UniProt Q9UEW3 147-520).
T1 construct: Human MARCO His-CLD-SRCR with Q452D, Y472S and K473S (already in the entry); also called recombinant human SRCR MARCO hVar3 protein
Kind of assay: ELISA on recombinant hVar3 protein, A450.

The target in assay [2] is T2, hMARCO(His-CLD-SRCR) (RG3033) (human, UniProt Q9UEW3 147-520).
T2 construct: also called wild type hMARCO
T2 sequence: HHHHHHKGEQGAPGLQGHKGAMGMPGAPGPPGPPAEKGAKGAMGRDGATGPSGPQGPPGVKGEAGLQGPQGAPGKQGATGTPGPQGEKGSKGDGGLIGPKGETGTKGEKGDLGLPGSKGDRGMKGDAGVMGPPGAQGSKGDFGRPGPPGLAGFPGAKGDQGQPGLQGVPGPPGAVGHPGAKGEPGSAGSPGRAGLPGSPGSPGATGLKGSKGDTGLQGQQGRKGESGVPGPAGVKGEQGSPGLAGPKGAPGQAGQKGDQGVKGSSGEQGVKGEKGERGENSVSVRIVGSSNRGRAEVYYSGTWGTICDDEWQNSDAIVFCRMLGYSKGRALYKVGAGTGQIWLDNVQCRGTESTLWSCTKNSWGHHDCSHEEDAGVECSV
Description: ProbeLife Gator study, statement on the loaded antibodies. The method in brief:
(§1)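 Antibody pairing on MARCO was assessed by biolayer interferometry on ProbeLife probes. In tandem format, 200 nM His-tagged MARCO was loaded on anti-His probes for 120 s, then a 60 s baseline, a first antibody at 200 nM, then a second antibody at 100-200 nM. In sandwich format, the first antibody (200 nM) was captured on anti-Fc probes for 120 s, followed by 200 nM MARCO and then the second antibody (200 nM), each for 120 s.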

The target of assay [3] is T3, N-terminal his-tagged mouse MARCO protein, recombinant (mouse, UniProt Q60754 150-518).
T3 construct: The entry holds the His tag, the CLD and the SRCR domain; also called mMARCO (RG3016); PI-RG-3016
T3 sequence: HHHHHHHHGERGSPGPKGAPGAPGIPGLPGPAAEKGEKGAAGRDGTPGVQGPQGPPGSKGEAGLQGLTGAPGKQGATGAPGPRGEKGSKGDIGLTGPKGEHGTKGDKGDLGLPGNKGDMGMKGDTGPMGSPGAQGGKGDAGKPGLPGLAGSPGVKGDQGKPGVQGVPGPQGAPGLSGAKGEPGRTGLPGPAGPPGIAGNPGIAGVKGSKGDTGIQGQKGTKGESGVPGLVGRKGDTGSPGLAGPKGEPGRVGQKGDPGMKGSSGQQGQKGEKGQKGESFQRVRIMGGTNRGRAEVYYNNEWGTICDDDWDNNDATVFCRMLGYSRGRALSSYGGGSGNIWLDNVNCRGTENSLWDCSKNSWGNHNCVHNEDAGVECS
Described as above. The method in brief:
as §1

In assay [4] the target is T3, N-terminal his-tagged mouse MARCO …. Kind of assay: Biacore. In general terms: In SPR one partner is held on a chip, and binding of the other changes the refractive index at the surface.
In assay [5] the target is T4, Mouse MARCO, full length, on cells (mouse, UniProt Q60754 1-518).
T4 construct: whole, on cells; the cell type is named under assay; also called muMARCO; MuMARCO
T4 sequence (looked up): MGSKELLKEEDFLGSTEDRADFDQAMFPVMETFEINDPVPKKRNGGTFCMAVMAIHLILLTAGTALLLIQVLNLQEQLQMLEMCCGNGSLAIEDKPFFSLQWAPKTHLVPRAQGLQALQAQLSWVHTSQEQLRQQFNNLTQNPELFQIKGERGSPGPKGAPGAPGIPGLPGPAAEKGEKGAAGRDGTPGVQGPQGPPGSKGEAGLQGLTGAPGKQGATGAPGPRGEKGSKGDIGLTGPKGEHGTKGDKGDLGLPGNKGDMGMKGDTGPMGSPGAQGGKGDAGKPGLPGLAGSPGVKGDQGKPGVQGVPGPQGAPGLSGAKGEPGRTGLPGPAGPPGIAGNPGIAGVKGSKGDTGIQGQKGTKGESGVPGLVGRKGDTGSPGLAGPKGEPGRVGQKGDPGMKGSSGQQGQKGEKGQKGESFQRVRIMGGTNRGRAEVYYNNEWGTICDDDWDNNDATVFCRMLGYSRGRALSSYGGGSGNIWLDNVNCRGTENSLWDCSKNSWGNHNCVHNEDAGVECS
Description: flow cytometry, 293T (muMARCO). On the technique in general: A flow cytometer gives signals particle by particle.

The target of assay [6] is T3, N-terminal his-tagged mouse MARCO …. Kind of assay: ELISA on mMARCO ECD with 2 mM Ca2+, A450-A620. Background: ELISA stands for enzyme-linked immunosorbent assay.
Assay [7] addresses T4, Mouse MARCO, full length, on cells. Description: competition with AF488 E. coli binding to muMARCO 293T cells, flow cytometry.

Here are results for 2 molecules from patent US20220153832A1 (PIONYR IMMUNOTHERAPEUTICS, published 2022).

B1: PI-3035-AB (antibody, mouse IgG2a, kappa, V domains shown)
VH: QVQLKESGPGLVQPSQTLSLTCTVSGFSLTSYTLSWVRQPPGKGLEWIGAIWGGDNTDYNSALKSRLSISRDTSKSQVLLKMNSLQTEDTAIYFCTRELGGSFDYWGQGVMVTVSS
VL: DIQMTQSPPVLSASVGDRVTLSCKTSQNINKKLDWYQQKHGEAPKLLIYYTNNLQTGIPSRFSGSGSGTDFTLTISTLQPEDVATYYCYQYDSGFTFGAGTKLELKR
notes: Mouse IgG2a chimera derived from PI-HX-3092; also called HX3092 (A mutation) - mIgG2a
B1: the binding result in assay [1], in assay [2] and in assay [3] was “binds” in each case.

B2: PI-3008-AB (antibody, mouse IgG2a, kappa, V domains shown)
VH: EVQLVESGGGLVKPGASLKLSCVASGFTFSDDWMNWVRQTPGKAMEWIGDIKYDGSYTNYVPSLKNRLTISRDNAKNTLYLQMTNVRSEDTATYYCTSGGVFDYWGQGVMVTVSS
VL: EIVLSQSPTTMAASPGEKVTITCRASSSVSYMHWFQQKSGTSPKPWIYDTSKLASGVPDRFSGSGSGTSYSLTISSMEAEDAATYYCLQRSGYPPTFGAGTKLEVKR
notes: Recombinant anti-mouse MARCO antibody with mouse IgG2a Fc, from PI-HX-3016
Turning to B2, the Kd (usually a measure of binding affinity in units of concentration) in assay [4] is less than 0.02 nM. Moreover, the EC50 (commonly the midpoint of the concentration-response curve) in assay [5] is 1.1 nM; in assay [7], 1.81 nM. Also, the binding result in assay [1] is “no binding (tested: 20 nM)”. In assay [6], the EC50 (read off the curve) (commonly the concentration that produces a half-maximal response) was roughly 0.07 nM.
